# Laboratory results from patent US20130217027A1.
# Key:
# [1] = molecular target: IS (2): peptide ARTKQTAR without the methylation modification conjugated to a 125 bp DNA strand (Control-IS); test: ChIP of spiked conjugate, qPCR primer set H3_qPCR, well A1
# [2] = molecular target: IS (2): peptide ARTKQTAR without the methylation modification conjugated to a 125 bp DNA strand (Control-IS); test: ChIP of spiked conjugate, qPCR primer set H3_qPCR, well A2
# [3] = molecular target: IS (1): peptide ARTK(me3)QTAR conjugated to a 125 bp DNA strand (H3K4me3-IS); test: ChIP of spiked conjugate, qPCR primer set H3K4me3_qPCR, well C1
# [4] = molecular target: IS (1): peptide ARTK(me3)QTAR conjugated to a 125 bp DNA strand (H3K4me3-IS); test: ChIP of spiked conjugate, qPCR primer set H3K4me3_qPCR, well C2
# [5] = molecular target: IS (2): peptide ARTKQTAR without the methylation modification conjugated to a 125 bp DNA strand (Control-IS); test: ChIP of spiked conjugate, qPCR primer set H3_qPCR_long, well E1
# [6] = molecular target: IS (2): peptide ARTKQTAR without the methylation modification conjugated to a 125 bp DNA strand (Control-IS); test: ChIP of spiked conjugate, qPCR primer set H3_qPCR_long, well E2
# [7] = molecular target: IS (2): peptide ARTKQTAR without the methylation modification conjugated to a 125 bp DNA strand (Control-IS); test: ChIP of spiked conjugate, qPCR primer set H3_qPCR_short, well I1
# [8] = molecular target: IS (2): peptide ARTKQTAR without the methylation modification conjugated to a 125 bp DNA strand (Control-IS); test: ChIP of spiked conjugate, qPCR primer set H3_qPCR_short, well I2
# [9] = molecular target: IS (1): peptide ARTK(me3)QTAR conjugated to a 125 bp DNA strand (H3K4me3-IS); test: ChIP with 10 fg of internal standard spiked after sonication, qPCR
# [10] = molecular target: IS (1): peptide ARTK(me3)QTAR conjugated to a 125 bp DNA strand (H3K4me3-IS); test: ChIP of spiked conjugate, qPCR primer set H3K4me3_qPCR_long, well G1
# [11] = molecular target: IS (1): peptide ARTK(me3)QTAR conjugated to a 125 bp DNA strand (H3K4me3-IS); test: ChIP of spiked conjugate, qPCR primer set H3K4me3_qPCR_long, well G2
# [12] = molecular target: IS (1): peptide ARTK(me3)QTAR conjugated to a 125 bp DNA strand (H3K4me3-IS); test: ChIP with 100 fg of internal standard spiked after sonication, qPCR
# [13] = molecular target: IS (1): peptide ARTK(me3)QTAR conjugated to a 125 bp DNA strand (H3K4me3-IS); test: ChIP of spiked conjugate, qPCR primer set H3K4me3_qPCR_short, well K1
# [14] = molecular target: IS (1): peptide ARTK(me3)QTAR conjugated to a 125 bp DNA strand (H3K4me3-IS); test: ChIP of spiked conjugate, qPCR primer set H3K4me3_qPCR_short, well K2
# [15] = molecular target: IS (1): peptide ARTK(me3)QTAR conjugated to a 125 bp DNA strand (H3K4me3-IS); test: ChIP of spiked conjugate, qPCR primer set H3K4me3_qPCR_Vshort, well M1
# [16] = molecular target: IS (1): peptide ARTK(me3)QTAR conjugated to a 125 bp DNA strand (H3K4me3-IS); test: ChIP of spiked conjugate, qPCR primer set H3K4me3_qPCR_Vshort, well M2
# [17] = molecular target: IS (2): peptide ARTKQTAR without the methylation modification conjugated to a 125 bp DNA strand (Control-IS); test: ChIP qPCR primer set H3_qPCR; ratio of H3K4me3-antibody ChIP over H3K36me3-antibody ChIP
# [18] = molecular target: IS (1): peptide ARTK(me3)QTAR conjugated to a 125 bp DNA strand (H3K4me3-IS); test: ChIP qPCR primer set H3K4me3_qPCR_Vshort; enrichment of H3K4me3-IS normalised to Control-IS
# [19] = molecular target: IS (1): peptide ARTK(me3)QTAR conjugated to a 125 bp DNA strand (H3K4me3-IS); test: ChIP qPCR primer set H3K4me3_qPCR; ratio of H3K4me3-antibody ChIP over H3K36me3-antibody ChIP
# [20] = molecular target: IS (2): peptide ARTKQTAR without the methylation modification conjugated to a 125 bp DNA strand (Control-IS); test: ChIP qPCR primer set H3_qPCR_long; ratio of H3K4me3-antibody ChIP over H3K36me3-antibody ChIP
# [21] = molecular target: IS (1): peptide ARTK(me3)QTAR conjugated to a 125 bp DNA strand (H3K4me3-IS); test: ChIP qPCR primer set H3K4me3_qPCR; enrichment of H3K4me3-IS normalised to Control-IS (H3_qPCR)
# [22] = molecular target: IS (2): peptide ARTKQTAR without the methylation modification conjugated to a 125 bp DNA strand (Control-IS); test: ChIP qPCR primer set H3_qPCR_short; ratio of H3K4me3-antibody ChIP over H3K36me3-antibody ChIP
# [23] = molecular target: IS (1): peptide ARTK(me3)QTAR conjugated to a 125 bp DNA strand (H3K4me3-IS); test: ChIP qPCR primer set H3K4me3_qPCR_long; ratio of H3K4me3-antibody ChIP over H3K36me3-antibody ChIP
# [24] = molecular target: IS (1): peptide ARTK(me3)QTAR conjugated to a 125 bp DNA strand (H3K4me3-IS); test: ChIP qPCR primer set H3K4me3_qPCR_short; ratio of H3K4me3-antibody ChIP over H3K36me3-antibody ChIP
# [25] = molecular target: IS (1): peptide ARTK(me3)QTAR conjugated to a 125 bp DNA strand (H3K4me3-IS); test: ChIP qPCR primer set H3K4me3_qPCR_Vshort; ratio of H3K4me3-antibody ChIP over H3K36me3-antibody ChIP
# [26] = molecular target: IS (1): peptide ARTK(me3)QTAR conjugated to a 125 bp DNA strand (H3K4me3-IS); test: ChIP qPCR primer set H3K4me3_qPCR_long; enrichment of H3K4me3-IS normalised to Control-IS (H3_qPCR_long)
# [27] = molecular target: IS (1): peptide ARTK(me3)QTAR conjugated to a 125 bp DNA strand (H3K4me3-IS); test: ChIP qPCR primer set H3K4me3_qPCR_short; enrichment of H3K4me3-IS normalised to Control-IS (H3_qPCR_short)
# [28] = molecular target: IS (2): peptide ARTKQTAR without the methylation modification conjugated to a 125 bp DNA strand (Control-IS); test: ChIP of spiked conjugate, qPCR primer set H3_qPCR, well A3
# [29] = molecular target: IS (2): peptide ARTKQTAR without the methylation modification conjugated to a 125 bp DNA strand (Control-IS); test: ChIP of spiked conjugate, qPCR primer set H3_qPCR, well A4
# [30] = molecular target: IS (1): peptide ARTK(me3)QTAR conjugated to a 125 bp DNA strand (H3K4me3-IS); test: ChIP of spiked conjugate, qPCR primer set H3K4me3_qPCR, well C3
# [31] = molecular target: IS (1): peptide ARTK(me3)QTAR conjugated to a 125 bp DNA strand (H3K4me3-IS); test: ChIP of spiked conjugate, qPCR primer set H3K4me3_qPCR, well C4
# [32] = molecular target: IS (2): peptide ARTKQTAR without the methylation modification conjugated to a 125 bp DNA strand (Control-IS); test: ChIP of spiked conjugate, qPCR primer set H3_qPCR_long, well E3
# [33] = molecular target: IS (2): peptide ARTKQTAR without the methylation modification conjugated to a 125 bp DNA strand (Control-IS); test: ChIP of spiked conjugate, qPCR primer set H3_qPCR_long, well E4
# [34] = molecular target: IS (2): peptide ARTKQTAR without the methylation modification conjugated to a 125 bp DNA strand (Control-IS); test: ChIP of spiked conjugate, qPCR primer set H3_qPCR_short, well I3
# [35] = molecular target: IS (2): peptide ARTKQTAR without the methylation modification conjugated to a 125 bp DNA strand (Control-IS); test: ChIP of spiked conjugate, qPCR primer set H3_qPCR_short, well I4
# [36] = molecular target: IS (1): peptide ARTK(me3)QTAR conjugated to a 125 bp DNA strand (H3K4me3-IS); test: ChIP of spiked conjugate, qPCR primer set H3K4me3_qPCR_long, well G3
# [37] = molecular target: IS (1): peptide ARTK(me3)QTAR conjugated to a 125 bp DNA strand (H3K4me3-IS); test: ChIP of spiked conjugate, qPCR primer set H3K4me3_qPCR_long, well G4
# [38] = molecular target: IS (1): peptide ARTK(me3)QTAR conjugated to a 125 bp DNA strand (H3K4me3-IS); test: ChIP of spiked conjugate, qPCR primer set H3K4me3_qPCR_short, well K3
# [39] = molecular target: IS (1): peptide ARTK(me3)QTAR conjugated to a 125 bp DNA strand (H3K4me3-IS); test: ChIP of spiked conjugate, qPCR primer set H3K4me3_qPCR_short, well K4
# [40] = molecular target: IS (1): peptide ARTK(me3)QTAR conjugated to a 125 bp DNA strand (H3K4me3-IS); test: ChIP of spiked conjugate, qPCR primer set H3K4me3_qPCR_Vshort, well M3
# [41] = molecular target: IS (1): peptide ARTK(me3)QTAR conjugated to a 125 bp DNA strand (H3K4me3-IS); test: ChIP of spiked conjugate, qPCR primer set H3K4me3_qPCR_Vshort, well M4
substance,measurement,setting,value
"antibody specific for H3K4me3 (Millipore, catalogue Number: 07-473, rabbit, polyclonal)",Cp (qPCR),[1],20.4
same,Cp (qPCR),[2],20.4
same,Cp (qPCR),[3],14.7
same,Cp (qPCR),[4],15.2
same,Cp (qPCR),[5],20.4
same,Cp (qPCR),[6],20.5
same,Cp (qPCR),[7],19.5
same,Cp (qPCR),[8],19.9
same,qPCR cycle of enrichment,[9],30 cycle
same,Cp (qPCR),[10],15.2
same,Cp (qPCR),[11],15.6
same,qPCR cycle of enrichment,[12],26 cycle
same,Cp (qPCR),[13],14.2
same,Cp (qPCR),[14],14.9
same,Cp (qPCR),[15],14
same,Cp (qPCR),[16],14.4
same,K4/K36,[17],1.16 fold
same,(K4/K36)^K4-ChIP/(K4/K36)^K36-ChIP,[18],86.8 fold
same,K4/K36,[19],30.9 fold
same,K4/K36,[20],0.862 fold
same,(K4/K36)^K4-ChIP/(K4/K36)^K36-ChIP,[21],26.6 fold
same,K4/K36,[22],0.871 fold
same,K4/K36,[23],37.8 fold
same,K4/K36,[24],45.9 fold
same,K4/K36,[25],75.6 fold
same,(K4/K36)^K4-ChIP/(K4/K36)^K36-ChIP,[26],43.9 fold
same,(K4/K36)^K4-ChIP/(K4/K36)^K36-ChIP,[27],52.7 fold
"non-relevant control antibody that should recognize H3K36me3 (Abcam, catalogue Number: ab9050, rabbit, polyclonal)",Cp (qPCR),[28],20.3
same,Cp (qPCR),[29],21
same,Cp (qPCR),[30],19.9
same,Cp (qPCR),[31],19.9
same,Cp (qPCR),[32],20.6
same,Cp (qPCR),[33],19.9
same,Cp (qPCR),[34],19.1
same,Cp (qPCR),[35],19.9
same,Cp (qPCR),[36],20.4
same,Cp (qPCR),[37],20.9
same,Cp (qPCR),[38],19.9
same,Cp (qPCR),[39],20.2
same,Cp (qPCR),[40],20.1
same,Cp (qPCR),[41],20.9
